Data as given in PMC6586891, “On the molecular and cellular effects of omeprazole to further support its effectiveness as an antigiardial drug” (Scientific Reports, 2019).

Substrate: O=CC(O)COP(=O)(O)O
Assay: Michaelis-Menten kinetics of purified enzyme (Km), coupled alpha-GDH/NADH assay
Type: biochemical, Giardia duodenalis

B1: Giardia lamblia triosephosphate isomerase (GlTIM WT) (Giardia duodenalis) (protein)
chain: MPARRPFIGGNFKCNGSLDFIKSHVAAIAAHKIPDSVDVVIAPSAVHLSTAIAANTSKQLRIAAQNVYLEGNGAWTGETSVEMLQDMGLKHVIVGHSERRRIMGETDEQSAKKAKRALEKGMTVIFCVGETLDERKANRTMEVNIAQLEALGKELGESKMLWKEVVIAYEPVWSIGTGVVATPEQAEEVHVGLRKWFAEKVCAEGAQHIRIIYGGSANGSNCEKLGQCPNIDGFLVGGASLKPEFMTMIDILTKTRT
notes: recombinant His-tag/TEV GlTIM WT
**Q.** B1 was tested. Which Km did it give?
**A.** 780 ± 60 µM

**Q.** And the kcat?
**A.** 7670 ± 267 s⁻¹

**Q.** And the kcat/Km?
**A.** 9.83e+06 M⁻¹ s⁻¹
